B1: ESR2 (parent)
chain: KSCQACRLRKCYEVGMVKCGSRRE

Variants of: B1
Assay: protein stability index of a GFP-peptide fusion (GPS, HEK-293T) (PSI 1-6); higher = more stable
Details: c terminus: a fixed tail appended
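Further: lentivirally expressed fusions sorted by FACS into six bins by GFP to DsRed ratio, PSI derived from sequencing read proportions per bin multiplied by bin number.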

Protein stability index: each site, then its substitutions
L8: Y 2.35 | S 2.83 | A 2.17 | T 2.11 | G 2.36 | D 1.61 | N 2.74 | C 2.61 | Q 1.84 | V 1.73 | W 1.87 | E 2.47 | F 2.21 | R 2.18 | K 2.66 | P 2.27
A5: I 2.34 | W 1.77 | M 1.36 | K 2.48 | T 2.11 | P 2.3 | E 2.39 | D 2.09 | L 2.29 | R 3.08 | V 1.93 | N 1.81 | Q 2.11 | G 1.84 | H 2.15 | F 1.55 | S 2 | C 2.08 | Y 1.64
S2: M 1.78 | Y 2.94 | E 1.96 | T 1.92 | A 1.6 | I 1.46 | R 2.43 | P 1.86 | D 1.98 | H 2.23 | V 1.92 | C 1.54 | W 1.91 | F 1.45 | G 1.96 | L 1.56 | Q 1.96 | N 1.98 | K 2.02
C6: V 2.42 | H 2.81 | P 3.03 | W 2 | Y 2.28 | G 2.88 | M 2.44 | S 2.25 | I 2.6 | R 3.05 | L 2.48 | D 2.73 | T 2.62 | N 2.94 | F 1.96 | E 2.38 | K 3.22 | Q 2.94 | A 2.57
C11: F 2.52 | R 2.5 | I 2.19 | D 2.72 | K 2.3 | A 1.82 | P 1.38 | N 1.78 | S 1.68 | Q 1.79 | G 2.4 | W 2 | L 2.31 | M 2.6 | V 2.47 | E 1.57 | T 2.29 | H 1.74
K10: W 1.74 | N 2.27 | R 1.56 | V 1.89 | D 1.49 | F 1.26 | E 2.12 | S 2.69 | I 1.98 | T 2.23 | P 1.94 | Q 1.68 | A 1.81 | G 1.78 | H 2.16 | Y 1.79 | M 1.48 | L 2.24 | C 1.5
Q4: K 1.84 | H 1.83 | I 1.88 | C 1.72 | A 1.55 | W 1.39 | G 1.58 | D 1.81 | L 2.15 | P 1.68 | R 2.15 | N 1.86 | M 2.18 | V 2.04 | T 2.17 | S 2.11 | Y 1.9 | F 1.32 | E 2.1
E13: D 1.88 | C 2.46 | Y 1.38 | A 1.93 | T 1.96 | I 2.03 | P 1.69 | G 2.3 | Q 1.7 | W 1.49 | S 2.42 | H 2.89 | N 1.93 | K 1.99 | M 1.7 | L 1.64 | V 1.6 | F 2.23 | R 1.95
V14: K 2.5 | Q 2.17 | D 2.17 | C 2.17 | G 1.94 | W 1.92 | N 2.34 | E 1.9 | S 2.52 | F 1.57 | L 1.49 | T 1.96 | P 1.62 | M 1.77 | A 2.1 | H 4.01 | R 2.27 | Y 1.7 | I 1.67
